Assay [1] has as its target T1, recombinant fibrinogen-like (FBG) domain of tenascin-X (TNX), produced in mammalian cells (UniProt O18977 3911-4135).
T1 sequence (looked up): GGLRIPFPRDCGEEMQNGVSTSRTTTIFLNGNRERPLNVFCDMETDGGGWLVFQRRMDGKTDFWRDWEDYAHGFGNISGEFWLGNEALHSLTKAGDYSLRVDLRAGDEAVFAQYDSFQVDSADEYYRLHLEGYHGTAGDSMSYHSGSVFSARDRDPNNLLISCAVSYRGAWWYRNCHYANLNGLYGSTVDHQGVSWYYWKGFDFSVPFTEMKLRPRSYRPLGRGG
Put plainly: ELISA.

The target in assay [2] is recombinant full-length tenascin-X (TNX) (UniProt O18977 23-4135). Put plainly: ELISA. (ELISA stands for enzyme-linked immunosorbent assay.)

B1: inserted (I) domain of the α11 integrin chain fused to GST (domain or fragment, human, UniProt Q9UKX5-1 160-358, looked up)
chain: QTYMDIVIVLDGSNSIYPWVEVQHFLINILKKFYIGPGQIQVGVVQYGEDVVHEFHLNDYRSVKDVVEAASHIEQRGGTETRTAFGIEFARSEAFQKGGRKGAKKVMIVITDGESHDSPDLEKVIQQSERDNVTRYAVAVLGYYNRRGINPETFLNEIKYIASDPDDKHFFNVTDEAALKDIVDALGDRIFSLEGTNKN
In the case of B1, the binding result in assay [1] and in assay [2] was “binds” throughout.

These data come from PMC4018787 (The Journal of Cell Biology, 2014).
